B1: TOR1AIP2 (parent)
chain: YTSSQKVSPIQIDGAGRTWQDSDT
B2: ISL2 (parent)
chain: HYPFLGAMGDHSKKKPGTAMCVGC

Variants of: B1
Experiment: protein stability index of a GFP-peptide fusion (GPS, HEK-293T) (PSI 1-6); higher = more stable
Conditions: c terminus: a fixed tail appended
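Further: lentivirally expressed fusions sorted by FACS into six bins by GFP to DsRed ratio, PSI derived from sequencing read proportions per bin multiplied by bin number.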

Protein stability index, by site and new letter:
I12: M 3.5 | L 3.29 | A 3.68 | H 4.21 | K 3.76 | T 3.65 | Y 3.19 | R 3.63 | F 3.24 | E 5 | C 2.7 | W 2.55 | G 4.59 | S 3.08 | P 3.99 | V 2.97 | D 4.12 | Q 4.03 | N 3.65
T24: K 3.29 | V 2.86 | S 3.85 | N 3.15 | P 3.55 | R 2.95 | C 3.52 | Q 2.63 | W 2.87 | E 5 | A 3.08 | Y 2.17 | M 2.58 | D 4.12 | H 3.51
G14: N 3.5 | W 3.16 | D 3.46 | S 3.51 | C 4.45 | V 2.78 | I 2.5 | T 3.38 | A 3.37 | F 2.83 | P 3.28 | Y 2.78 | H 3 | L 2.99 | M 2.77 | Q 3.57 | E 3.94 | R 1.95
A15: C 3.03 | K 2.73 | Y 2.91 | I 3.25 | N 3.71 | F 2.45 | S 2.95 | D 3.85 | Q 3.35 | E 3.52 | G 3.04 | P 2.99 | L 2.93 | V 2.82 | H 2.6 | R 2.56 | W 1.67 | T 3.36
T18: M 2.42 | E 3.83 | D 4.01 | I 2.63 | W 2.3 | C 2.9 | L 3 | Y 2.74 | S 2.87 | F 1.33 | V 3.29 | R 3.43 | P 3.38 | K 3.33 | A 3.01 | G 3.47 | Q 3.8 | N 3.41
I10: S 3.93 | F 1.85 | L 3.52 | V 4.1 | P 4.18 | W 2.4 | M 3.44 | C 3.25 | D 4.32 | A 3.77 | G 3.85 | T 3.96 | H 3.5 | R 3.76 | Y 1.57 | E 4.58 | N 4.2 | Q 4 | K 3.33
Q11: M 3.16 | R 3.11 | I 2.72 | V 2.84 | E 3.81 | F 2.06 | Y 2.2 | D 3.96 | S 3.73 | G 2.06 | W 5.21 | K 3.95 | H 3.67 | L 2.8 | C 2.47 | T 3.56 | P 3.93 | N 3.4 | A 2.96
P9: V 2.66 | K 3.71 | I 2.69 | S 4.38 | E 4.28 | L 3.74 | F 2.05 | H 3.22 | Y 2.22 | G 3.45 | T 3.98 | R 3.37 | M 3.12 | D 3.94 | N 3.49 | Q 3.44
D23: A 3.06 | M 2.06 | Q 3.41 | T 2.17 | R 2.48 | Y 2.81 | H 2.16 | W 1.55 | P 2.64 | I 1.44 | K 2.55 | G 2.72 | F 2.04 | N 3.41 | S 2.73 | C 2.83
D13: W 1.54 | G 3.07 | V 2.39 | K 2.77 | R 2.36 | N 3.15 | L 2.29 | H 2.64 | P 2.87 | C 2.79 | M 2.21 | I 2.35 | Y 1.96 | Q 3.27 | A 3.2 | S 2.86 | T 2.87 | E 3.33 | F 1.67
S22: L 2.35 | M 2.18 | W 2.85 | D 4.55 | G 2.74 | A 4.18 | F 2.71 | K 2.95 | V 3.17 | H 3.06 | T 3.63 | Q 3.64 | N 3.55 | P 3.67 | C 3.18 | R 3.29 | Y 2.51 | I 3.12 | E 4.08
W19: G 3.74 | S 4.76 | I 3.96 | Q 4.57 | H 4.09 | E 4.86 | N 4.04 | C 3.88 | V 4.56 | A 3.93 | F 3.92 | M 4.34 | K 4.56 | P 4.67 | L 4.11 | T 4.35 | D 4.39 | Y 4.08 | R 4.13
R17: C 3.66 | N 3.02 | K 3.54 | S 3.96 | L 3.21 | Q 3.79 | W 2.32 | Y 3.02 | V 3.64 | M 2.18 | T 3.6 | D 4.16 | F 2.33 | G 3.63 | P 4.25 | E 4.4 | H 2.24 | I 3.59 | A 3.66
G16: T 2.7 | V 3 | I 2.54 | Y 2.89 | M 3.65 | Q 2.97 | L 3.07 | E 3.32 | N 1.93 | K 3.33 | W 1.61 | D 4.01 | A 3.07 | R 3.19 | P 3.24 | S 2.9 | H 3.41 | C 2.99 | F 2.3
D21: T 2.62 | P 2.81 | M 2.36 | V 2.39 | E 3.27 | C 2.85 | R 2.6 | A 2.73 | Q 2.45 | L 2.46 | Y 2.43 | N 3.29 | H 2.34 | G 2.62 | K 3.46 | S 2.95 | I 2.71 | F 2.33
Q20: C 3.34 | G 3.08 | R 2.62 | V 3.54 | H 2.71 | L 2.58 | F 2.62 | P 2.69 | D 3.79 | A 3.43 | M 2.75 | N 4.09 | T 3.03 | W 2.01 | I 2.42 | E 4.31 | S 3.69 | Y 2.84 | K 3.16

Variants of: B2
Experiment: as above
Conditions: c terminus: a fixed tail appended

Protein stability index, by site and new letter:
P3: D 1.96 | G 3.08 | A 2.32 | F 1.93 | C 2.84 | E 3.04
H1: Y 1.99 | I 1.95 | M 1.82 | K 2.62 | A 3.6 | T 2.69 | Q 2.92 | G 2.64 | P 2.75 | W 2.59 | S 2.58 | V 2.11 | E 2.05 | L 2.01 | R 2.7 | C 2.11 | F 2.02 | D 3.15 | N 3.84
Y2: L 3.37 | P 3.58 | A 3.43 | D 4.76 | F 2.55 | W 2.16 | C 2.53 | K 2.83 | I 2.79 | S 3.33 | G 3.54 | Q 3.04 | R 2.94 | T 4.07 | V 2.6 | E 3.62 | H 2.48 | N 4.08 | M 2.97
